Data reported in patent publication US20140037624A1 (Genentech, published 2014).
Numbering of substitutions follows the chain as printed. Numbers in names are those of the source.

T1: human FGFR4 (recombinant, construct not stated; SPR, FGFR4 ELISA, receptor-binding assay) (human, UniProt P22455 22-369, limits assumed)
T1 construct: Whole exemplary entry named
T1 sequence: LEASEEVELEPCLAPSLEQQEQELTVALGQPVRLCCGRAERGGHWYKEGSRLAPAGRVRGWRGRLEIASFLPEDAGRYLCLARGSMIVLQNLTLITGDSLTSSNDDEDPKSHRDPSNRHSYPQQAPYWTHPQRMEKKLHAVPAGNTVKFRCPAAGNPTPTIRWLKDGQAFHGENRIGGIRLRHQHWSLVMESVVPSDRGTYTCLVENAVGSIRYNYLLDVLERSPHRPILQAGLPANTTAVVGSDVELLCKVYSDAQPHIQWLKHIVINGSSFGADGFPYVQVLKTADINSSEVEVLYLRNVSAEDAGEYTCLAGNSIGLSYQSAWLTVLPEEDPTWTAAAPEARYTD

B1: chimeric LD1 (murine LD1 variable domains with human kappa and human IgG1 constant domains) (antibody, V domains shown)
VH: EVQLQQPGAVLVRPGTSVKLSCKASGYTFTNHWMNWVKQRPGQGLEWIGMIHPSDSETTLDQKFKDKATLTVDKSSSTAYMQLNRPTSEDSAVYYCTRGDISLFDYWGQGTTVTVSS
VL: DIQMTQTTSSLSASLGDRVTITCRTSQDISNFLNWYQQKPDGTFKILISYTSRLHSGVPSRFSGSGSGTDYSLTISTLEQEDFATYFCQQGNALPYTFGGGTKLEIE
notes: also called chLD1; ChLD1
B2: hLD1.vB (humanized LD1 with light chain P44F, L46I, Y49S) (antibody, V domains shown)
VH: EVQLVESGGGLVQPGGSLRLSCAASGYTFTNHWMNWVRQAPGKGLEWVGMIHPSDSETTLDQKFKDRFTISADTSKNTAYLQMNSLRAEDTAVYYCTRGDISLFDYWGQGTLVTVSS
VL: DIQMTQSPSSLSASVGDRVTITCRTSQDISNFLNWYQQKPGKAFKILISYTSRLHSGVPSRFSGSGSGTDFTLTISSLQPEDFATYYCQQGNALPYTFGQGTKVEIK
B3: hLD1.v22 (humanized and affinity matured LD1) (antibody, V domains shown)
VH: B2 VH with H52L, S54V, D61E
VL: DIQMTQSPSSLSASVGDRVTITCRTSQDISNFLNWYQQKPGKAFKILISYTSRLHSGVPSRFSGSGSGTDFTLTISSLQPEDFATYYCQQGNALPYTFGQGTKVEIKR

Legend:
[1] = biological target: human FGFR4-FGFR1 chimeric construct on BaF3 cells (human, UniProt P11362 398-820, limits assumed); assay: cell-based or functional assay
[2] = biological target: T2, mouse complement C3 (ca. 37 kDa fragment, C3d, from mouse plasma) (mouse, UniProt P01027 1002-1303, limits assumed); assay: immunoprecipitation from NCR nude mouse plasma, SDS-PAGE
T2 construct: Native protein of plasma/serum, pulled down as a ca. 37 kDa band; also called mouse C3; mouse C3d

[3] = biological target: T3, cynomolgus FGFR4-Fc chimeric protein (cynomolgus monkey); assay: solid phase binding assay, LD1 on immobilized cFGFR4-Fc, OD 450 nm
T3 construct: also called cFGFR4

[4] = biological target: T4, cynomolgus monkey FGFR4 (SPR of FIG. 2B, construct not stated) (cynomolgus monkey); assay: surface plasmon resonance (table row 'Cynomolgus', column 'Kd (nM)')
T4 construct: also called cynomolgus FGFR4

[5] = biological target: T1, human FGFR4 (recombinant, construct not …); assay: surface plasmon resonance, compared with chLD1
Protocol: (§1) Affinity determinations were performed by surface plasmon resonance using a BIAcore™-2000. Approximately 50 RU of hLD1.vB IgG was immobilized in 10 mM Sodium Acetate pH 4.8 on a CM5 sensor chip and serial 2-fold dilutions of the FGFR4 (0.48-1000 nM) in PBST were injected at a flow rate of 30 μl/min. Each sample was analyzed with 4-minute association and 10-minute dissociation. After each injection the chip was regenerated using 10 mM glycine pH 1.7. Binding response was corrected by subtracting the RU from a flow cell with an irrelevant IgG immobilized at similar density. A 1:1 Languir model of simultaneous fitting of kon and koff was used for kinetics analysis.
As a first step in the humanization of LD1, the variable light and heavy domains of chLD1 were aligned with the human kappa I (huKI) and human VH subgroup III (huIII) variable domain frameworks used in trastuzumab (FIG. 10). Hypervariable regions from chLD1 were grafted into these human variable frameworks to generate a direct CDR-graft (hLD1.vA)^{15, 16}. […] Substitution of mouse sequence at various vernier positions in both the variable light and heavy domains was explored as a means to improve binding and led to the identification of three important mouse vernier positions in the LC: P44F, L46I and Y49S.

[6] = biological target: T1, human FGFR4 (recombinant, construct not …); assay: SPR (BIAcore-2000), antibody immobilized, human FGFR4 as analyte
Protocol: as §1
TABLE 3 Binding Kinetics of anti-FGFR4 antibody variants. The association and dissociation rates of human FGFR4 binding to immobilized antibody variants were measured using surface plasmon resonance.

[7] = biological target: T1, human FGFR4 (recombinant, construct not …); assay: FGFR4 ELISA (immobilized FGFR4), O.D. 450 nm against IgG concentration

T2 sequence (P01027 1002-1303 limits assumed): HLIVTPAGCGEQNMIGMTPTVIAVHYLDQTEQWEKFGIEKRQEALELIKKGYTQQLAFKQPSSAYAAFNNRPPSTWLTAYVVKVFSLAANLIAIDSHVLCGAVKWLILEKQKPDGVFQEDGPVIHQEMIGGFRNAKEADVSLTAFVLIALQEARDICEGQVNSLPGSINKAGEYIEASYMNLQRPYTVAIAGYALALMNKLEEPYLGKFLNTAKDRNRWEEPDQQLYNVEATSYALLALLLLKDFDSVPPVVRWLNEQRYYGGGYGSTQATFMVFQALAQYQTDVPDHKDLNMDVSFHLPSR

Binder | IC50 of inhibition of proliferation of BaF3/FGFR4/R1 cells in the presence of 5 nM FGF1 [1] [nM] | binding result [2] | EC50 (read off the curve) [3] [µg/mL] | Kd [4] [nM] | fold weaker binding against chLD1 [5] [fold] | Kd [6] [nM] | koff [6] [s⁻¹] | EC50 (read off the curve) [7] [µg/mL]
B1 | 17.4 | no binding | ~0.04 | 0.8 |  |  |  | 
B2 |  |  |  |  | ~2 | 0.97 | 0.00028 | ~4
B3 |  | no binding |  |  |  | 0.043 | 3.9e-05 | 
